“And” between values parts separate entries of the source, which are not always exact repeats. Equal values may be shown once.

The assay deals with chitin binding domain-intein fusion of the ToxR periplasmic domain (CBDI-ToxRp) (V. cholerae El Tor N16961), P15795. Kind of assay: pull-down.

B1: ToxS periplasmic domain (ToxSp), purified, cleaved from the chitin binding domain-intein tag, P24003 25-173 (domain or fragment)
chain: SDFKLEQVLTSREWQSKMVSLIKTNSNRPAMGPLSRVDVTSNVKYLPNGTYLRVSIVKLFSDDNSAESVINISEFGEWDISDNYLLVTPVEFKDISSNQSKDFTDEQLQLITQLFKMDAQQSRRVDIVNERTILFTSLSHGSTVLFSNS
modifications: not checked
B1: the percent of input pulled down was 6% and 9%.

(Values after paper PMC5498992.)
